Test results: patent US20240158505A1 (published 2024)
Positions count from the first letter of the chain named.

B1: #1 antibody (antibody, V domains shown)
VH: EVQLLESGGGLVQPGGSLRLSCAASGFTFSSYAMSWVRQAPGKGLEWVSTITGSGGSTYYADSVKGRFTISRDNSKNTLYLQMNSLRAEDTAVYYCARYKSGAFDIWGQGTLVTVSS
VL: EIVLTQSPGTLSLSPGERATLSCRASQGIGNYLGWYQQKPGQAPRLLIYTASSLQSGIPDRFSGSGSGTDFTLTISRLEPEDFAVYYCQQGYSTPSWTFGQGTKVEIK
B2: #2 antibody (antibody, V domains shown)
VH: EVQLLESGGGLVQPGGSLRLSCAASGFTFSAYYMIWVRQAPGKGLEWVSITNPSGGVTSYAQKFQGRFTISRDNSKNTLYLQMNSLRAEDTAVYYCARVGGRGFDIWGQGTLVTVSS
VL: EIVLTQSPGTLSLSPGERATLSCHASQGISNYVAWYQQKPGQAPRLLIYDASNRATGIPDRFSGSGSGTDFTLTISHLEPEDFAVYYCQQSYSTLLTFGQGTKVEIK
B3: #3 antibody (antibody, V domains shown)
VH: EVQLLESGGGLVQPGGSLRLSCAASGFTFSTYYMTWVRQAPGKGLEWVSIINPRGGSTSYAEKFQGRFTISRDNSKNTLYLQMNSLRAEDTAVYYCARWNLGMDVWGQGTLVTVSS
VL: EIVLTQSPGTLSLSPGERATLSCRVSQSISSYLNWYQQKPGQAPRLLIYDASHRATGIPDRFSGSGSGTDFTLTISRLEPEDFAVYYCQQYYAPSVTFGQGTKVEIK
B4: #4 antibody (antibody, V domains shown)
VH: EVQLLESGGGLVQPGGSLRLSCAASGFTFSSYGMHWVRQAPGKGLEWVSAISGSGTSIYYANSVKSRFTISRDNSKNTLYLQMNSLRAEDTAVYYCARGAGWFDYWGQGTLVTVSS
VL: QSVLTQPPSASGTPGQRVTISCSGSTSNIGSNTVNWYQQLPGTAPKLLIYGKNIRPNGVPDRFSGSKSGTSASLAISGLHSEDEADYYCQSYDSSLSGWVFGGGTKLTVL
B5: #5 antibody (antibody, V domains shown)
VH: EVQLLESGGGLVQPGGSLRLSCAASGFTFSTYAMSWVRQAPGKGLEWVSAISGSGGSTLYADSVKGRFTISRDNSKNTLYLQMNSLRAEDTAVYYCARGGSATWAFDLWGQGTLVTVSS
VL: QSVLTQPPSASGTPGQRVTISCSGSSSNIGSNYVYWYQQLPGTAPKLLIYRNNQRPSGVPDRFSGSKSGTSASLAISGLRSEDEADYYCGTWDSSLSGVVFGGGTKLTVL
B6: #6 antibody (antibody, V domains shown)
VH: EVQLLESGGGLVQPGGSLRLSCAASGFTFSTYAISWVRQAPGKGLEWVSSIYYSGYTHYNPSLESRFTISRDNSKNTLYLQMNSLRAEDTAVYYCARGYSGWMDVWGQGTLVTVSS
VL: QSVLTQPPSASGTPGQRVTISCGGNNIGSKSVHWYQQLPGTAPKLLIYDNNKRPSGVPNRFSGSKSGTSASLAISGLRSEDEADYYCAAWDDSLNVPVFGGGTKLTVL
B7: #7 antibody (antibody, V domains shown)
VH: EVQLLESGGGLVQPGGSLRLSCAASGFTFSNFWIGWVRQAPGKGLEWVSWINPPGSITSYADSVKGRFTISRDNSKDTLYLQMNSLRAEDTAVYYCAREVGDVLDYWGQGTLVTVSS
VL: QSVLTQPPSASGTPGQRVTISCTGTSSDIGRYNYVSWYQQLPGTAPKLLIYRNTQRPSGVPDRFSGSKSGTSASLAISGLRSEDEADYYCGTWDSSLNAYVFGGGTKLTVL
B8: #8 antibody (antibody, V domains shown)
VH: EVQLLESGGGLVQPGSSLRLSCAASGFTFSSYWISWVRQAPGKGLEWVSEISPSGNTNYNPSLKSRFTISRDNSKNTLYLQMNSLRAEDTAVYYCAREVGDLLDYWGQGTLVTVSS
VL: QSVLTQPPSASGTPGQRVTISCSGSNIGNNYVSWYQQLPGTAPKLLIYQDSKRPSGVPDRFSGSKSGTSASLAISGLRSEDEADYYCLVWDRSSDHFVFGGGTKLTVL
B9: #9 antibody (antibody, V domains shown)
VH: EVQLLESGGGLVQPGGSLRLSCAASGFTFSSYAMNWVRQAPGKGLEWVSTISGSGGQTYYADSVKGRFTISRDNSKNTLYLQMNSLRAEDTAVYYCARWRSIWAFDYWGQGTLVTVSS
VL: B6 VL with G23S, G24D, N59D, A88G, A89T, N95S, V96G

Molecular target: B7-H3 expressed on the cell membrane (MCF-7, RKO and RKO/B7H3 cell lines) (UniProt Q5ZPR3)
Sequence (Q5ZPR3 29-534): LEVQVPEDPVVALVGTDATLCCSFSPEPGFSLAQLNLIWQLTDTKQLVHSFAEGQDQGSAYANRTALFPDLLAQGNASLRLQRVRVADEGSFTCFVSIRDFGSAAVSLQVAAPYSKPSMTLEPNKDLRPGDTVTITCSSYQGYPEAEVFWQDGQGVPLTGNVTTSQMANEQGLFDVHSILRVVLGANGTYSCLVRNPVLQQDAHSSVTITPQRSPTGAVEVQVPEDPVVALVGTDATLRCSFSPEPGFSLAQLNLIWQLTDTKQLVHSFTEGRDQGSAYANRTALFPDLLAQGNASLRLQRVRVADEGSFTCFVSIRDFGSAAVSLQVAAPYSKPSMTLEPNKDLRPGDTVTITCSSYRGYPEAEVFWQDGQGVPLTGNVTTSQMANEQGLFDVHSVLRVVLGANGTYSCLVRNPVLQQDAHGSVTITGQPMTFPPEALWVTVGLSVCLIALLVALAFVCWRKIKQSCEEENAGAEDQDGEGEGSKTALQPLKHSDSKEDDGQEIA
Assay: cell ELISA on fixed RKO/B7H3 cells

Binder	EC50 [nM]
B1	0.015
B2	0.036
B3	0.065
B4	0.042
B5	0.091
B6	0.065
B7	0.187
B8	0.06
B9	0.05

Molecular target: B7-H3 expressed on the cell membrane (MCF-7, RKO and RKO/B7H3 cell lines) (UniProt Q5ZPR3)
Assay: cell ELISA on fixed MCF-7 cells

Binder	EC50 [nM]
B1	0.605
B2	0.061
B3	0.197
B4	0.502
B5	1.74
B6	0.234
B7	1.01
B8	0.159
B9	0.322

Molecular target: T1, Recombinant Human B7-H3 Fc chimera Protein (Rndsystem, Cat #1027-B3-100) (human, UniProt Q5ZPR3 29-245)
T1 chain: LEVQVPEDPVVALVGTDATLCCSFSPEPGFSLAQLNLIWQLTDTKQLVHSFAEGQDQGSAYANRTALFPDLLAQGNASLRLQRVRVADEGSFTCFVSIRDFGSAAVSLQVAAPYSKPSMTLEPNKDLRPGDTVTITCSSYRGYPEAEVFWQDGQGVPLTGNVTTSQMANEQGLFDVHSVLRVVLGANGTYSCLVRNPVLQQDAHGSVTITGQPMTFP
Assay: ELISA

Binder	EC50 [nM]
B1	0.18
B2	0.42
B3	1.1
B4	0.55
B5	1.2
B6	1.86
B7	1.8
B8	0.63
B9	1.1
